Test results reported in paper PMC10360031.

Target: cell-surface vimentin (CSV) on mouse embryonic fibroblasts mEF +/+ (mouse (endogenous in mEF)) (UniProt P20152)
Experiment: AFM single-molecule force spectroscopy

Substance | binding probability (specific adhesion events) (% of force curves) | mean rupture force at 5 um/s [pN]
wild-strain SARS-CoV-2 spike protein RBD (from UniProt P0DTC2) (domain or fragment) | < 10 | 
South Africa B.1.135 RBD (from UniProt P0DTC2) (domain or fragment) |  | 25.8
Brazil P.1 RBD (from UniProt P0DTC2) (domain or fragment) |  | 31.3
